Source: article PMC2613574

Experiments:
[1] = target: FNfn10 ND7N fragment displayed on the yeast surface (Aga2p fusion, FLAG tag) (human); assay: flow cytometry on cells
[2] = target: FNfn10 wild-type N fragment displayed on the yeast surface (Aga2p fusion, FLAG tag) (human); assay: flow cytometry on cells

Substance	Kd [1] [nM]	log(B/E ratio) [2]
ubiquitin fusion of the FNfn10 C fragment with the V5 tag (domain or fragment)	25.3	
FNfn10 C fragment, wild type, co-secreted in yeast (V5 tag) (domain or fragment)		1.3
